From patent JP2021042960A (dated 2021) come the findings set out here.

For one test, the target named is T1, ヒトCLDN15タンパク質 (human, UniProt P56746 1-228).
T1 construct: Expressed in HEK293T cells from a plasmid that also expresses Venus; 228 residues, four-pass membrane protein; also called クローディン15; WT
T1 sequence: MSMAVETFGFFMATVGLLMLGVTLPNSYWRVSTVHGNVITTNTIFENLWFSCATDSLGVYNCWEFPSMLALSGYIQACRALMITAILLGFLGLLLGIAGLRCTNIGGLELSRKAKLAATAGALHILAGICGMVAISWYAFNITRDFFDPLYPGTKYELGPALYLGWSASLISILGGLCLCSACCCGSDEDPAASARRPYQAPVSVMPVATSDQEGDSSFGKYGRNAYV
The test is described as follows: immunohistochemistry on paraffin sections of CLDN-expressing cell pellets and of patients' malignant pleural mesothelioma tissue.

For a further test, the target named is T2, ヒトCLDN6タンパク質 (human, UniProt P56747 1-220).
T2 construct: whole, on cells; Expressed with Venus in HEK293T cells; formalin-fixed paraffin sections of cell pellets
T2 sequence (looked up): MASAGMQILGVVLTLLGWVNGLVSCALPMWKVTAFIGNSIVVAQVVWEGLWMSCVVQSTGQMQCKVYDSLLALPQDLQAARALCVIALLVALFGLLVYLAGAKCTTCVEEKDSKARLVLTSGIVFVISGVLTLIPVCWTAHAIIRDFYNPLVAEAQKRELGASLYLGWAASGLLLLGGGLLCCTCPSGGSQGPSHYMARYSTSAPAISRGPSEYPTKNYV
The test is described as follows: immunohistochemistry on paraffin sections of HEK293T cells expressing the CLDN.

The next test concerns the target T3, ヒトCLDN1タンパク質 (human, UniProt O95832 1-211).
T3 construct: whole, on cells; Expressed with Venus in HEK293T cells; formalin-fixed paraffin sections of cell pellets
T3 sequence (looked up): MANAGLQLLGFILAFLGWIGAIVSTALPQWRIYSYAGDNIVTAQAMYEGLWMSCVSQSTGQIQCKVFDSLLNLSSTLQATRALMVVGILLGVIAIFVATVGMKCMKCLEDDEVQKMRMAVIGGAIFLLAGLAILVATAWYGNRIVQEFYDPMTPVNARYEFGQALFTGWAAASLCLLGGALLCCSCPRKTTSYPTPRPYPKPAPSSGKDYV
Described as above.

Another test deals with T4, ヒトCLDN5タンパク質 (human, UniProt O00501 1-218).
T4 construct: whole, on cells; Expressed with Venus in HEK293T cells; formalin-fixed paraffin sections of cell pellets
T4 sequence (looked up): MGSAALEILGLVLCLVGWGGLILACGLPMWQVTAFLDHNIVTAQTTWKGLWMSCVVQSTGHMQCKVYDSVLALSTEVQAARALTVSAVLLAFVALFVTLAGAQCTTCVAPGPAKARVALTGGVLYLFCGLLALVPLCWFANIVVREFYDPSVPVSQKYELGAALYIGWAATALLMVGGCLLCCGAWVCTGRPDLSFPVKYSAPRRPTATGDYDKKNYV
Described as above.

Another test deals with T5, ヒトCLDN4タンパク質 (human, UniProt O14493 1-209).
T5 construct: whole, on cells; Expressed with Venus in HEK293T cells; formalin-fixed paraffin sections of cell pellets
T5 sequence (looked up): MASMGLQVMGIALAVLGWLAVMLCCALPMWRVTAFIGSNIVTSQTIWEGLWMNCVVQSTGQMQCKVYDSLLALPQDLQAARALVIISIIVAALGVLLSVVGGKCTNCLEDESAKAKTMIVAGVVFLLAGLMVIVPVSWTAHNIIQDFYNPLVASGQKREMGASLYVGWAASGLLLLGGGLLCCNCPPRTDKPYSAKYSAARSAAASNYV
The test is described as above.

A further test has as its target T6, ヒトCLDN9タンパク質 (human, UniProt O95484 1-217).
T6 construct: whole, on cells; Expressed with Venus in HEK293T cells; formalin-fixed paraffin sections of cell pellets; also called CLDN9
T6 sequence (looked up): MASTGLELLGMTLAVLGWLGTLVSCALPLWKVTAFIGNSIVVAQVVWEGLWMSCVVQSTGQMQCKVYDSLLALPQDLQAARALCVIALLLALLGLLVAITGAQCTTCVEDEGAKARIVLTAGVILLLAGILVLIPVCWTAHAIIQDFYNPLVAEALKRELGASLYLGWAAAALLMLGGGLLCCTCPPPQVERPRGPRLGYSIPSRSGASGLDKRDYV
The test is described as above.

B1: ラット抗ヒトCLDN15モノクローナル抗体クローン2C11 (antibody, V domains shown)
VH: AVQLVESGGGLVQPKESLKISCAASGFTFSNAAMYWVRQAPGKGLEWVARIRTKPNNYATYYADSVKGRFTISRDDSKSMVYLQMDNLKTEDSAMYYCTAPAYYFGYWGQGVMVTVSS
VL: DVVLTQTPPTLSATIGQSVSISCRSSQSLLHSNGNTYLHWLLQRPGQSPQLLIYLVSRLESGVPNRFSGSGSGTDFTLKISGVEAEDLGVYYCVQGTHAPWTFGGGTKLELK
notes: Rat monoclonal antibody from a hybridoma, used as culture supernatant and detected with anti-rat IgG-HRP; also called 2C11抗体; 抗CLDN15モノクローナル抗体(2C11)
For B1, the binding result with ヒトCLDN15タンパク質 is “binds”; with ヒトCLDN6タンパク質 it was “no binding”; with ヒトCLDN1タンパク質, “no binding”; in the test with ヒトCLDN5タンパク質, “no binding”; in the test with ヒトCLDN4タンパク質, “no binding”; in the test with ヒトCLDN9タンパク質, “no binding”.
